Test results as given in patent US20150056232A1.

Molecular target: TLR5

FliC180 protein of S. Typhimurium (Phase I FliC flagellar antigen with the ΔfliC180 deletion) (from UniProt P06179) (ligand)
NF-κB production (% higher than the FliC+ strain): 50
